Reference: PMC12533970, “Highly accurate protein structure prediction-based virtual docking pipeline accelerating the identification of anti-schistosomal compounds”

Key:
Test in all cases: EMSA; EMSA: 0.5 pmol FAM-RNA (heated 70 C 5 min, cooled on ice) with 1 ug WT or 2 ug mutant protein in 10 uL Beyotime reaction buffer (composition, salt and pH not stated), 20 min at room temperature; competitor 200 pmol unlabeled RNA; 6% native PAGE in 1x TBE pH 8.3
Conditions in all cases: protein: recombinant; tags: His+SUMO, cleaved with ULP1; single strand
SmU2AF65 = SmU2AF65 (Schistosoma mansoni, UniProt C4Q2F6 1-521)
SmU2AF65 Mutant 1 = SmU2AF65 Mutant 1 (Schistosoma mansoni, UniProt C4Q2F6 1-521, L255A;R270A;Q284A;V289A)
SmU2AF65 Mutant 2 = SmU2AF65 Mutant 2 (Schistosoma mansoni, UniProt C4Q2F6 1-521, L255A;R270E;Q284R;V289A)

UACAUAAAUUAAUAAGUAUUUUUACUUUUUUUUAUUUUCAAUUUCAACAG (ssRNA) [50-nt intron 3' region consensus RNA]
binding result (SmU2AF65): binds | binding result (SmU2AF65 Mutant 1): binds | binding result (SmU2AF65 Mutant 2): no binding
